Data: the nanobody polyreactivity screen of Harvey et al. (2022)

Test: yeast display, Sf9 membrane polyspecificity reagent, FACS + sequencing; frameworks hold sequencing errors
How it was run: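 Nanobodies came from a synthetic yeast display library in Saccharomyces cerevisiae BJ5465, induced with galactose for 36–48 hours and stained for 1 hour at 4 °C with 10% biotinylated, detergent-solubilized Sf9 membrane reagent. Cells were enriched on streptavidin microbeads and then FACS-sorted, with low and high (top ~1%) gates set on anti-HA fluorescence for expression and streptavidin fluorescence for reagent binding. Each polyreactivity label reflects the gate a clone came from. Genes were amplified by colony PCR, sequenced by MiSeq 2 × 250 and filtered by CDR length.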

Sequence	polyreactivity (PSR sort gate)
QVQLVESGGGLVQAGGSLRLSCAATGSTFIFYAMGWYRQAPGKERELVAAISWSGGSTYYADSVKGRFTISRDNAKNTVYLQMNSLKPEDTAVYYCNARWSSWYIHSHYYYWGQGTQVTVSS	high polyreactivity
QVQLVESGGGLVQAGGSLRLSCAATGSTFRKYAMGWYRQAPGKEREFVAAISSAGGRTYYADSVKGRFTISRDNAKNTVYLQMNSLKPEDTAVYYCNAYFRYSYDYWGQGTQVTVSS	high polyreactivity
QVQLVESGGGLVQAGGSLRLSCAATGSTFYVNDMGWYRQAPGKERELVAAIDWTGGTTYYADSEKGRFTISRDNAKNTVYLQMNSLKPEDSAVYYCAVDDSTVDYDYWGQGTQVTVSS	low polyreactivity
QVQLVESGGGLVQAGGSLRLSCAATGSTIPYYAMGWYRQAPGKERELVARITSGDRTYYADSVKGRFTISRDNAKNTVYLQMNSLKPEDTADYYCNAQVHYYSWYGYWGQGTQVTVSS	high polyreactivity
QVQLVESGGGLVQAGGSLRLSCAATGSTRYYAMGWYRHAPGKERELVASIASIGGSTSYADSVKGRFTISRDNAKNTVYLQMNSLKPEDTAVYYCATRSLVYSARAAGLIQFDHWGQGTQVTVSS	low polyreactivity
QVQLVESGGGLVQAGGSLRLSCAATRYTFSHYAMGCYRQAPGKERELVAAMSGSGGNTYYADSVKGRFTISRDHAKNTVYLQMNSLKPEDTAVYYCNADNEYRLGYWDDSWVQGTQVTVSS	low polyreactivity
QVQLVESGGGLVQAGGSLRLSCAAYEFIFARNGMGWSRQAPGKERELVAAITNSGSTYADSVKGRFTISRDNAKNTVYLQMNSLKPEDTAVYYCNKDPGNVSSYNGGGYWGQGTQVTVSS	low polyreactivity
QVQLVESGGGLVQAGGSLRLSCAAYGFIFLENDMGWYRQAPGKERELVASINSGSDTNYADSVKGRFTISRDNAKNTVYLQMNSLKPEDTAVYYCNASYNGVPARYDYWGQGTQVTVSS	low polyreactivity
QVQLVESGGGLVQAGGSLRLSCAAYGFTFSWYAMGWYRQAPGKERELVAAISSSGGSTYYADSVKGRFTISRDNAKNTVYLQMNSLKPEDTAVYYCNAYRSASVVVGYDYWGQGTQVTVSS	high polyreactivity
QVQLVESGGGLVQAGGSLRLSCAAYGGIFPAYAMGWYRQAPGKERELVAAISSSGRTYYADSVKGRFTISRDNAKNTVYLQMNSVKPEDTAVYYCAAYGGYRGWVFGSYGSWGQGTQVTVSS	high polyreactivity
QVQLVESGGGLVQAGGSLRLSCAAYGIIFYLYAMGWYRTAPGKERELVAAITWNGGRTYYADSVKGRFTISRDNAKNTVYLQMNSLKPEDTAVYYCNTDRRWRGTYTTRYDYWGQGTQVTVSS	low polyreactivity
QVQLVESGGGLVQAGGSLRLSCAAYGITFAYYVMGWYRQAPGKERELVAAISRSGSTYYADSVKGRFTISRDNAKITVYLQMNCLKPEDTAVYYCAVLYIRWYTYEYWGQGTQVTVSS	high polyreactivity
QVQLVESGGGLVQAGGSLRLSCAAYGITFEVNAMGWYRQAPGKERELVAAINSSVASTYYADSVKGRFTISRDNAKNTVDLQMNSLKPEDTAVYYCAAQGKGGTEYGYGYWGQGTQVTVSS	low polyreactivity
QVQLVESGGGLVQAGGSLRLSCAAYGLTFPWNAMGWYRQSPGKERELVAAITSRGGNTYYADSVKGRFTISRDNAKNTVYLQMNSLKPEDTAVYYCAARQYWSYRRYDYWGQGTQVTVSS	high polyreactivity
QVQLVESGGGLVQAGGSLRLSCAAYGNTFEGYAKGWYRQAPGKERELVAAISGSSGSTYYADSVKGRFTISRDNAKNTVYLQMNSLKPEDTAVYYCAAYSYYPPYDYWGQGTQVTVSS	high polyreactivity
QVQLVESGGGLVQAGGSLRLSCAAYGNTFSQYAKGWYRQAPGKERELVATISKSSGSTSYTDSVKGRFTISRDNAKNTVYLQLNSLKPEDSAVYYCNADSSDVYHHLGVLFFSTWYDYWGQGTLVTVSS	low polyreactivity
QVQLVESGGGLVQAGGSLRLSCAAYGRIFAPNAMGWYRQAPGKERELVATISWSGGSTYYADSVNGRFTISRDNSKNYVYLQMNSLKPEDTAVYYCAGSNYQYGVISYDYWGKGTQVTVSS	low polyreactivity
QVQLVESGGGLVQAGGSLRLSCAAYGRIFFRYAMGWYRQAPGKERELVATISSSGSTYYADSVKGRFTISRDNAKNTVYLQMNSLIPEDTAVYYCAATWTTRGLRHFVYNDYDYWGQGTQVTVSS	high polyreactivity
QVQLVESGGGLVQAGGSLRLSCAAYGRIFWLYAMGWYRQAPGKERELVAVISWSGGTTYYADSVKGRFTISRDNAKNTVYLQMNSLKPEVTAVYYCAKQGWTSYDYWGQGTQVTVSS	low polyreactivity
QVQLVESGGGLVQAGGSLRLSCAAYGRTFHAYAKGWYRQAPGKGRELVAAITRTGTTHYADSVKGRFTISRDNAKNTVYLQMNSLKPEDTAVYYCAAQHVRVDAQFVLQGYDYWGQGTQVTVSS	low polyreactivity

Sequence	polyreactivity (PSR sort gate)
QVQLVESGGGLVQAGGSLRLSCAAYGRTFLYNAMGWYRQAPGKERELVAAISSRGARTYYADSVKGRFTISRDNAKNTVYLQMNSLKPEDTAVYYCATDSYRYDGIQYLYEYYYWGQGTQVTVSS	high polyreactivity
QVQLVESGGGLVQAGGSLRLSCAAYGRTFRLNAMGWYRQAPGKERELVAGIRVRAGTTYYADSVKGRFTISRDNAKNTVYLQMNSLKPEDTAVYYCAAESYSRSRKYDYWGQGTQVTVSS	high polyreactivity
QVQLVESGGGLVQAGGSLRLSCAAYGRTFYGYAMGWYRQAPGKEREFFAAITWRGGSTYYADSVKGRFSISRDNAKNNVFLQMNSLKPEDTAVYYCAADYRVYTRYGLRKFDYWGQCTQVTVSS	high polyreactivity
QVQLVESGGGLVQAGGSLRLSCAAYGRTIRRNAMGWYRQAPGKERELVAGISGSGTITYADSVKGRFTIARDNAKNTVYLQMNSLKPEDTAVYYCAARRKSFYTFYYWGQGTQVTVSS	high polyreactivity
QVQLVESGGGLVQAGGSLRLSCAAYGRYYSRNPMGWYRQAPGKERELVAAITWRGGSTYYADSVKGRFTISRDNAKNTVFLQMISLKPEDTAVYYCNRDYRQYGYAYSGRYYWGHGTQVTVSS	high polyreactivity
QVQLVESGGGLVQAGGSLRLSCAAYGSFFPYNAMGWYRQAPGKERELVAGITRRGGSTYYADSVKGRFTISRDNAKNTVYLQINSLKPVDTAVYYCGTEVTYPWHVDEGDYWGQGTQVTVSS	low polyreactivity
QVQLVESGGGLVQAGGSLRLSCAAYGSIFDANAMGWYRQAPGKEREFLAAINCTGGSTYYAESVKGRFTISRDYAKNTVYLQMNILKPEDTAGYYCAAEWWYQNNPEIYYYWGQGIQVTVSS	high polyreactivity
QVQLVESGGGLVQAGGSLRLSCAAYGSIFETYVMGWYRQAPGKERELVAAINSGGSTNYADSVKGRFTISRDNAKNTVYLQMNSLKPEDTAVYYCNADWFTPAQPWYRYFIRYDYWGQGTQVTVSS	low polyreactivity
QVQLVESGGGLVQAGGSLRLSCAAYGSIFGGNAMGWYRQAPGKERELVARITDRGGSTDYADSVKGRFTISRDNAKNTVFLHMNSLKREDTAVYYCAKRGDRYEQRPRDYWGQGTQVTVSS	low polyreactivity
QVQLVESGGGLVQAGGSLRLSCAAYGSIFGSYCMGWYRQAPGKERELVAAIRVSGGSTYYADSVKGRFTISRDNAKNTVYLQMNSLKPEDTAVYYCAARARSTPRKYYYTRGYWGQGSQVTVSS	high polyreactivity
QVQLVESGGGLVQAGGSLRLSCAAYGSIFVWYDMGWYRQAPGKERELVATISLSGVSTYYADSVKGRFTISRDNAKNTVYLQMNCLKPEDSAVYYCAADFVEQGEDDYWGQGTQLTVSS	low polyreactivity
QVQLVESGGGLVQAGGSLRLSCAAYGSTFPGYAMGWYRQAPGKERELVAAISASGGSTYYADSVKGRFTISRDNAKNTVYLQMISLIPEDTAVYFCAKVLSRGACADDYWGQGTQVTVSS	low polyreactivity
QVQLVESGGGLVQAGGSLRLSCAAYGSTFYAYAMGWYRQAPGKERELVAAITYRDARTYYADSVKGRFTISRDNAKNTVYLQMISLKPEDTAVYYCARKTGFTVRRYDYWGQGTQVTVSS	high polyreactivity
QVQLVESGGGLVQAGGSLRLSCAAYGSTLAGYAMGWYRQAPGKERELVAAIDWTGGSTTYADSVKGRFTISRDNAKNTVYLQMNSLKPEDTAVYYCNVDLGVNGDYWGQGSQVTVSS	low polyreactivity
QVQLVESGGGLVQAGGSLRLSCAAYGSTLNRNVMGWYRQAPGKERELVAVITYGVGSTYYADSVKGRFTISRDNAKNTVYLQMNSLKPEDTAVYYCNKDPLVFDYWGQGTQVTVSS	low polyreactivity
QVQLVESGGGLVQAGGSLRLSCADSGFIFRYNTMGWYRQAPGKERELVAAITSGDSTYYADSVKGRFTITRDNAKNTVYLQMNSLKPEDTEVYYCAARPYSGRNKYDYWGQGTQVTVSS	high polyreactivity
QVQLVESGGGLVQAGGSLRLSCADSGFIFYDYTMGWYRQAPGKERELVAVISRGGSTYYADSVKGRFTISRDNAKNTVYLQMNSLNPEDSAVYYCAARPRWYTFTRQEYDYWGQGTQVTVSS	high polyreactivity
QVQLVESGGGLVQAGGSLRLSCADSGFIIFCYAMGWYRQAPGKERELVAAITSGGSTYYAYSVKGRFTISRDNAKNTVYLQMNSLKPEDTAVYYCAAVRWYGSKRYGYWGQGTQVTVSS	high polyreactivity
QVQLVESGGGLVQAGGSLRLSCADSGFNFYQYAMGWYRQAPGKERELVAVISGSGSRTYYADSVKGRFTISRDNAKNTVYLQMNSLKPEDTAVYYCAAKGVIISYDTLRYDSWGQGTQVTVSS	high polyreactivity
QVQLVESGGGLVQAGGSLRLSCADSGFTFIKYAMGWYRQAPGKEREFVATISWNGGNTYYADSVKGRFTISRDNAKNTVYLQMNSLKPEDTAVYYCAARVKYRTRGGTVVSYDYWGQGPQVTVSS	high polyreactivity
